Experimental data from patent US20220356229A1 (published 2022).

Key:
SARS-CoV Spike protein = SARS-CoV Spike protein (SARS-CoV, UniProt P59594 14-1190)
[1] = target: SARS-CoV Spike protein (full length Spike, coupled to optically encoded beads) (SARS-CoV, UniProt P59594 14-1190)

B1: antibody 446 (antibody, V domains shown)
VH: QVQLVESGGGVVQPGRSLRLSCAASGFTFSSYAMHWVRQAPGKGLEWVAVISYDGSNKYYADSVKGRFTISRDNSKNTLYLQMNSLRAEDTAVYYCARPNSGSYFGYFQHWGQGTLVTVSS
VL: QSVLTQPPSVSGAPGQRVTISCTGSSSNIGAGYDVHWYQQLPGTAPKLLIYGNSNRPSGVPDRFSGSKSGTSASLAITGLQAEDEADYYCQSYDSSLSGFYVFGTGTKVTVL
bead binding signal (fold over isotype control) (SARS-CoV Spike protein): 6.58

B2: antibody 443 (antibody, V domains shown)
VH: QMRLEESGPGLVKPSETLSLTCTVAGGSITSSDYFWGWLRQSPGKGLEWIASTYHGGSIQYHPALKSRVTISVDASKNQISLRLSSVTAADTAVYYCARDRGDDGPMGTYYFDHWGQGALVTVSS
VL: QSVLTQPPSVSGAPGQSVTISCAGSSSNIGAGHDVHWYQQIPGTAPKLLICGNTNRPSGVPERFSGSRSGTSASLAITGLQAEDEAVYYCQSYDPSHVFFGTGTKLTVL
bead binding signal (fold over isotype control) (SARS-CoV Spike protein): 1.03

B3: antibody 444 (antibody, V domains shown)
VH: QVQLVESGGGLVKPGGSLRLSCAASGFTFSDYYMSWIRQAPGKGLEWVSYISSSGSTIYYADSVKGRFTISRDNAKNSLYLQMNSLRAEDTAVYYCARERKVVVAATRNYYYYYGMDVWGQGTTVTVSS
VL: SYELTQPPSVSVSPGQTARITCSGDALPKQYAYWYQQKPGQAPVLVIYKDSERPSGIPERFSGSSSGTTVTLTISGVQAEDEADYYCQSADSSTWVFGGGTKLTVL
bead binding signal (fold over isotype control) (SARS-CoV Spike protein): 1

B4: antibody 452 (antibody, V domains shown)
VH: QVQLVESGGGLVKPGGSLRLSCAASGFTFSDYYLSWIRQAPGKGLEWVSYISSSGSNIYYADSVKGRFTISRDNAKNSLYLQMNSLRADDTAVFYCARAGRYCSGGSCRVEYFQHWGQGTLVTVSS
VL: SYELTQPPSVSVSPGQTARITCSGDALPKQYAYWYQQKPGQAPVLVIYKDNERPSGIPERFSGSSSGTTATLTISGVQAEDEADYYCQSADSSGTVVFGGGTKLTVL
bead binding signal (fold over isotype control) (SARS-CoV Spike protein): 1.09

B5: antibody 470 (antibody, V domains shown)
VH: not shown
VL: QSALTQPASVSGSPGQSITISCTGTSSDVGSYNLVSWYQQHPGKAPKLMIYEVSKRPSGVSNRFSGSKSGNTASLTISGLQAEDEADYYCCSYAGSSTLVFGGGTKLTVL
bead binding signal (fold over isotype control) (SARS-CoV Spike protein): 1.09

B6: anti-SARS-CoV-2 antibody 431 (antibody, V domains shown)
VH: QVQLVESGGGVVQPGRSLRLSCAASGFTFSSYAMHWVRQAPGKGLEWLAVISYDGSNKYYADSVKGRFTISRDNSKNTLYLQMNSLRAEDTAVYYCARSFRGGYYYGMDVWGQGTTVTVSS
VL: DIQLTQSPSFLSASVGDRVTITCRASQGISSYLAWYQQKPGKAPKLLIYAASTLQSGVPSRFSGSGSGTEFTLTISSLQPEDFATYYCQQLNSYPLFTFGPGTKVDIK
median fluorescence, fold over isotype [1]: 49.9 fold over isotype

B7: antibody 439 (antibody, V domains shown)
VH: QVQLVESGGGVVQPGRSLRLSCAASGFTFSSYAMHWVRQAPGKGLEWVAVISYDGSNKYYADSVKGRFTISRDNSKNTLYLQMNSLRAEDTAVYYCARPPRGGSYYPFDPWGQGTLVTVSS
VL: not shown
bead binding signal (fold over isotype control) (SARS-CoV Spike protein): 1.23

B8: antibody 434 (antibody, V domains shown)
VH: QVQLVQSGAEVKKPGASVQVSCKASGYTFSDYYIFWVRQAPGQGLEWMGCINPKSGGAIYAQRFQGRVTMTRDTSFNTAYMEMNRLGSDDTAVYYCVTRGPPDIAASGFAWHLDVWGQGTTVTVSS
VL: DIVMTQSPLSLPVTPGEPASISCRSSQSLLSSNGYNYLEWYLQKPGQSPQLLMYLGSNRASGVPDRFSGSGSGTDFTLKINRVEAEDVGVYYCMQALQTPLTFGGGTKVEIK
bead binding signal (fold over isotype control) (SARS-CoV Spike protein): 1.36

B9: antibody 454 (antibody, V domains shown)
VH: QVQLVQSGAEVKKPGASLKVSCKASGYIFTGYYMHWVRQAPGQGLEWMGWISPNSGGTKYAQKFQGRVTMTRDTSISTAYMELSRLRSDDSAVYYCAREPYYDILTGYYTPRRYLDYWGQGTLVTVSS
VL: QSALTQPASVSGSPGQSITISCTGTSSDVGDYNYVSWYQQHPGKVPKLMIYDVSHRPSGVTNRFSGSKSGNTASLTISGLRAEDEADYYCSSYTSSSTYVFGTGTKVTVL
bead binding signal (fold over isotype control) (SARS-CoV Spike protein): 1.1
